Test results published in PMC3316568, “Crystal Structure of Streptococcus pyogenes Csn2 Reveals Calcium-Dependent Conformational Changes in Its Tertiary and Quaternary Structure” (PLoS ONE, 2012).

What was measured:
[1] = molecular target: the molecule itself; assay: crystal structure; selenomethionyl Csn2, 2.2 Å, MAD; crystals at 20°C from 150 mM KCl, 4 mM DTT, 100 mM HEPES pH 7.0 with 2.3 M sodium acetate pH 7.0; no calcium added; dimer in the asymmetric unit, tetramer with the symmetry-related dimer
[2] = molecular target: the molecule itself; assay: SEC; analytical, Superdex 200 10/300 GL; 200 mM NaCl, 2 mM DTT, 10 mM Tris-HCl pH 8.0; 0.5 mL of 1.0 mg/mL Csn2; no calcium added
Csn2 [3] = molecular target: T1, Csn2 (Streptococcus pyogenes, UniProt Q99ZV9 1-220); assay: EMSA; no added metal; DNA:Csn2 tetramer 1:0, 1:1, 1:10; 50 mM NaCl, 20 mM HEPES pH 7.5, room temperature, 20 min; 150 ng DNA; 10% native Tris-glycine PAGE, ethidium bromide stain; details: protein: recombinant; tags: (His)6-MBP tag removed by TEV protease; chain copies: 4
T1 sequence: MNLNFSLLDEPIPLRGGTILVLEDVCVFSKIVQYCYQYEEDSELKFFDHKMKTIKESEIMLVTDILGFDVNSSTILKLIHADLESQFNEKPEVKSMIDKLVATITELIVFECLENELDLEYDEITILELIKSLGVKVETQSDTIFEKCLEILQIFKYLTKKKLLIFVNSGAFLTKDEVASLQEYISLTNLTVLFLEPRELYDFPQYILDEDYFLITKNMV

Csn2 [4] = molecular target: T1, Csn2; assay: EMSA; no added metal; DNA:Csn2 tetramer 1:0, 1:1, 1:10; non-specific binding; 50 mM NaCl, 20 mM HEPES pH 7.5, room temperature, 20 min; 150 ng DNA; 10% native Tris-glycine PAGE, ethidium bromide stain; details: protein: recombinant; tags: (His)6-MBP tag removed by TEV protease; chain copies: 4

B1: Selenomethionyl Streptococcus pyogenes Csn2 (natural protein)
chain: MNLNFSLLDEPIPLRGGTILVLEDVCVFSKIVQYCYQYEEDSELKFFDHKMKTIKESEIMLVTDILGFDVNSSTILKLIHADLESQFNEKPEVKSMIDKLVATITELIVFECLENELDLEYDEITILELIKSLGVKVETQSDTIFEKCLEILQIFKYLTKKKLLIFVNSGAFLTKDEVASLQEYISLTNLTVLFLEPRELYDFPQYILDEDYFLITKNMV
modifications: selenomethionine (SeMet labelling)
notes: Csn2, CRISPR-associated protein of the Nmeni subtype (type II-A), Streptococcus pyogenes; same construct as m1, expressed as selenomethionyl protein; residues up to 220 are named for the structure; Same construct as m1 with selenomethionine; Two monomers (A, B) in the asymmetric unit; the tetramer is formed with a symmetry-related dimer; also called SeMet Csn2; selenomethionyl S. pyogenes Csn2; …
B1 was tested, and the “stoichiometry N” value [1] was 4.

B2: Streptococcus pyogenes Csn2 (native) (natural protein)
chain: MNLNFSLLDEPIPLRGGTILVLEDVCVFSKIVQYCYQYEEDSELKFFDHKMKTIKESEIMLVTDILGFDVNSSTILKLIHADLESQFNEKPEVKSMIDKLVATITELIVFECLENELDLEYDEITILELIKSLGVKVETQSDTIFEKCLEILQIFKYLTKKKLLIFVNSGAFLTKDEVASLQEYISLTNLTVLFLEPRELYDFPQYILDEDYFLITKNMV
notes: Csn2, CRISPR-associated protein of the Nmeni subtype (type II-A), Streptococcus pyogenes; the csn2 gene cloned into pHMGWA; monomeric molecular weight printed as 26.0 kDa; residues up to 220 are named for the structure; also called Native Csn2; source: E. coli BL21 (DE3), purified (HisTrap HP, TEV cleavage, second HisTrap HP, Superdex200); not shown: His6, N-terminal, cleaved; MBP, N-terminal, …
B2 was tested, and the “stoichiometry N” value [2] was 4.

B3: S. pyogenes CRISPR DNA 90 bp (dsDNA)
DNA 1: TTTTAGACAAAAATAGTCTACGAGGTTTTAGAGCTATGCTGTTTTGAATGGTCCCAAAACTGCGCTGGTTGATTTCTTCTTGCGCTTTTT
DNA 2: AAAAAGCGCAAGAAGAAATCAACCAGCGCAGTTTTGGGACCATTCAAAACAGCATAGCTCTAAAACCTCGTAGACTATTTTTGTCTAAAA
B3: binds (Csn2 [3]).

B4: control DNA 90 bp (ERD1 promoter) (dsDNA)
DNA 1: TCTTAAAACTCCACAAACATTACGGCAGTTAGAATTTAAATTTATCTTGGAATATTGTTTGTATATTATTAACAAATGTAAATTGGTGTA
DNA 2: TACACCAATTTACATTTGTTAATAATATACAAACAATATTCCAAGATAAATTTAAATTCTAACTGCCGTAATGTTTGTGGAGTTTTAAGA
B4: binds (Csn2 [4]).
